The target in assay [1] is T1, Recombinant human IL-15 (human, UniProt P40933 49-162).
T1 construct: also called rIL-15; human rIL-15
As to the kind of experiment: SPR, analysis of sensorgrams. Here is the method:
(§1) These experiments were performed with a BIACore 2000 biosensor (BIACore, Uppsala, Sweden). rIL-15 was covalently linked to CM5 sensor chips, and the binding of increasing concentrations of sIL-15Rα-IL-2, sIL-15Rα-sushi-IL-2 or sIL-15Rα-sushi was monitored. Analysis of sensograms was performed using BIAlogue kinetics evaluation software.
In general terms: In SPR one partner is held on a chip, and binding of the other changes the refractive index at the surface.

Assay [2] has as its target T1, Recombinant human IL-15. As to the kind of experiment: SPR.
For assay [3], the target named is T1, Recombinant human IL-15. Briefly: SPR, BIAcore 2000. The protocol: as §1
Assay [4] concerns the target T1, Recombinant human IL-15. Briefly: Competition with 125I-rIL-15 (200 pM) binding to IL-15Rα on TF-1 cells. The protocol: The three soluble forms of IL-15Rα were tested for their ability to compete out the binding of radio-iodinated IL-15 to IL-15Rα expressed by the human cell line TF-1 which also expresses the IL-15Rγ chain, but not the IL-15Rβ chain (FIG. 1D).

The target of assay [5] is T1, Recombinant human IL-15. Briefly: cell-based or functional assay.
In assay [6] the target is T2, IL-15Rβ/γ complex (intermediate affinity receptor), human (human, UniProt P14784 27-551; P31785 23-369).
T2 construct: whole, on cells; Found on Mo-7 cells, which express IL-15Rβ/γ but not IL-15Rα; also called IL-15Rbeta/gamma; IL-2Rβ/γ
As to the kind of experiment: 125I-sIL-15Rα-sushi saturation binding to TF-1β cells in the presence of 1 nM rIL-15. Here is the method: Labeling with [¹²⁵I]-iodine of human rIL-15, sIL-15Rα-sushi and RLI fusion protein, and subsequent binding experiments were performed as described previously (19). For internalization, cells were equilibrated at 4° C. with labeled sIL-15Rα-sushi or RLI, and the temperature switched to 37° C. At different time intervals, two samples were washed and centrifuged. One of the cell pellets was treated with glycine-HCl buffer 0.2 M, pH 2.5, whereas the other was treated with PBS pH 7.4 at 4° C. for 5 min. After centrifugation, total ligand binding was determined from the pellet of the cells treated with PBS, whereas the membrane bound and internalized fractions were determined respectively from the supernatant and pellet of cells treated with acid pH.
As further shown in FIG. 6D, the radiolabeled sIL-15Rα-sushi was efficiently internalized. Radiolabeled RLI fusion protein also bound to TF1β cells (FIG. 6E). […] Once bound, the RLI was also efficiently internalized (FIG. 6F).

T1 sequence (P40933 49-162 limits assumed): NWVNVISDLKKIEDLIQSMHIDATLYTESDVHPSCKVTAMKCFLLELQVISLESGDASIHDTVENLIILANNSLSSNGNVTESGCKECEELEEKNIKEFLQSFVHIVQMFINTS
T2 sequence (P14784 whole entry, chain 1 of 2): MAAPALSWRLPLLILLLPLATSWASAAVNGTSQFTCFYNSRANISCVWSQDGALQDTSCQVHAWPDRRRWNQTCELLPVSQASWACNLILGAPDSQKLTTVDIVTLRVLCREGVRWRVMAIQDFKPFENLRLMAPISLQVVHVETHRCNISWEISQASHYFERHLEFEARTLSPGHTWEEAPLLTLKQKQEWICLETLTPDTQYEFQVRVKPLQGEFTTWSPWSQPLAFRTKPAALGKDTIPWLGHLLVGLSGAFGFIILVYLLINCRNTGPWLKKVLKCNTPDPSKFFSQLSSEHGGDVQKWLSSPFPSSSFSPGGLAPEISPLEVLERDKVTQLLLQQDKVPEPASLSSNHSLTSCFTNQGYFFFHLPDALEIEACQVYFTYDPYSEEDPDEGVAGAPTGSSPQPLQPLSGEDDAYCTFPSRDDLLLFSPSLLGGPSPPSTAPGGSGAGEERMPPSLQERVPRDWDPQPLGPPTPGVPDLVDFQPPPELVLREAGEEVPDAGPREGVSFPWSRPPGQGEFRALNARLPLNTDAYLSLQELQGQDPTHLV
T2 sequence (P31785 whole entry, chain 2 of 2): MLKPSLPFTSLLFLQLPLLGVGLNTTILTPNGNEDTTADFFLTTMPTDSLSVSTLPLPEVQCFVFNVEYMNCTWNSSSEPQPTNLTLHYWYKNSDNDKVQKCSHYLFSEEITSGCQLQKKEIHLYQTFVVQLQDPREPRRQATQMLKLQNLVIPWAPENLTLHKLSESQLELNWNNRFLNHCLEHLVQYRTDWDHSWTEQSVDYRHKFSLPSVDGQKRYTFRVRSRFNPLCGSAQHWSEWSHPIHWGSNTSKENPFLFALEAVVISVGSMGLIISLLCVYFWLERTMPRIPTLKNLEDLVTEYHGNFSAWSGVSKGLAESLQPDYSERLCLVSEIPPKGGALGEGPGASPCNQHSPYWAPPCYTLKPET

B1: sIL-15Rα-Sushi+ (receptor)
chain: ITCPPPMSVEHADIWVKSYSLYSRERYICNSGFKRKAGTSSLTECVLNKATNVAHWTTPSLKCIRDPALVHQRPAPP
notes: Expressed in SF9 insect cells; No sentence names it for Sushi+; also called Sushi15+; Flag-Factor Xa tagged sIL-15Rα-Sushi+; not shown: Flag-Factor Xa tag
A word on the Kd: it is the free concentration of one partner at which half of the binding sites on the other are occupied at equilibrium, for simple one-to-one binding. As for B1, the Kd with Recombinant human IL-15 [1] stood at 0.102 nM. Further, in the assay with Recombinant human IL-15 [2], the “fold increase in binding affinity compared to sIL-15Rα-Sushi-IL-2” value is 4 fold and the “fold lower affinity than the full length soluble IL-15Rα” value came out at 3 fold.

B2: sIL-15Rα-sushi (receptor)
chain: ITCPPPMSVEHADIWVKSYSLYSRERYICNSGFKRKAGTSSLTECVLNKATNVAHWTTPSLKCIRD
notes: also called soluble sushi domain; not shown: Vector-encoded tag of pQE30; The protein was trapped on Ni-NTA agarose
Broadly, the koff is the rate constant with which the complex falls apart. The term kon denotes the rate constant with which the complex forms. Broadly, the IC50 is the midpoint of a concentration-inhibition curve. For the molecule B2, in the assay with Recombinant human IL-15 [3], the Kd worked out at 1.5 nM, the koff was found to be 0.00038 s⁻¹ and the kon amounted to 250000 M⁻¹ s⁻¹. Also, in the assay with Recombinant human IL-15 [4], the IC50 is 1.3 nM. The “IC50 of the potentiation of Mo-7 proliferation driven by a fixed concentration of rIL-15 (1 nM)” value in the assay with Recombinant human IL-15 [5] came out at 3.5 nM. In assay [6], the Kd came to 3.5 nM.

The values above are taken from patent publication US20090238791A1 (INSTITUT NATIONAL DE LA SANTE ET DE LA RECHERCHE MEDICALE …, published 2009).
